Reference: publication PMC9017343 (2022)

Tests used:
[1] = biological target: T1, SARS-CoV S trimer (ectodomain) (SARS-CoV, UniProt P59594 14-1195); experiment: SPR
[2] = biological target: T1, SARS-CoV S trimer (ectodomain); experiment: SPR; remark: listed apart in the source

B1: COVA1-16 (antibody, V domains shown)
VH: QVQLVQSGAEVKKPGASVKVSCKASGYTFTSYYMHWVRQAPGQGLEWMGIINSSGGSTSYAQKFQGRVTMTRDTSTSTVYMELSSLRSEDTAVYYCARPPRNYYDRSGYYQRAEYFQHWGQGTLVTVSS
VL: DIQLTQSPSSLSASVGDRVTITCQASQDISNYLNWYQQRPGKAPKLLIYDASNLETGVPSRFSGSGSGTDFTFTISSLQPEDIATYYCQQYDNPPLTFGGGTKLEIK
[1]
  koff: 0.0032 s⁻¹
[2]
  Kd: 19.5 nM
